Experiment [1] concerns the target MMsHsp (sHsp of Methanococcus maripaludis) (Methanococcus maripaludis). The experiment can be described thus: AUC; sedimentation velocity at 40 °C, 1.0 mg/mL, 40,000 rpm, Rayleigh interference optics, c(s20,w) with SEDFIT; oligomers of one protein.
Experiment [2] has the same target. The experiment can be described thus: AUC; sedimentation velocity at 40 °C, 0.1 mg/mL, 40,000 rpm, Rayleigh interference optics, c(s20,w) with SEDFIT; oligomers of one protein.

By stoichiometry N is commonly meant a count of units in the complex or per binding partner. As for “MMsHsp (sHsp of Methanococcus maripaludis) (natural protein)”, in experiment [1], the stoichiometry N was 16; the w, weight fraction of peak a (N 2) came to 16.8%; the w, weight fraction of peak b (N 8) was 4.6%; the w, weight fraction of peak c (N 17) stood at 5.3%. In experiment [1], this substance yielded a w, weight fraction of peak d (N 24) of 73.3%. In experiment [2], this substance gave a w, weight fraction of peak a (N 2) of 31.3%; a w, weight fraction of peak b (N 8) of 4.2%; a w, weight fraction of peak c (N 18) of 10.9%; a w, weight fraction of peak d (N 24) of 53.6%.
